Numbering of substitutions follows the chain as printed. Names and notes keep the numbering of the source.
T1: TNFR1 (Homo sapiens, UniProt P19438)
T1 chain: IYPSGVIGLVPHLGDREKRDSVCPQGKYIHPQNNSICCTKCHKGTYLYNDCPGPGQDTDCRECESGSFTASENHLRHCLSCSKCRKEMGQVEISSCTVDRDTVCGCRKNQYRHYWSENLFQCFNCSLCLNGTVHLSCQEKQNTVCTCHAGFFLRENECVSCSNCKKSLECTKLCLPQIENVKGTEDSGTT

B1: E67W (designed binder)
chain: MTLQELLREEALRRAEAEAFRYALELLAEKFPEQKEYLLDLAEEIESQIRSLSGVDVEDVRKFLDKWWAWVKELLAEHPAELAEVEAARAARLAELRAEVEAKVAA
B2: W68I (designed binder)
chain: B1 chain with W67E, W68I
B3: E9P (designed binder)
chain: B1 chain with E9P, W67E
B4: A102M (designed binder)
chain: B1 chain with W67E, A102M
B5: A17S (designed binder)
chain: B1 chain with A17S, W67E
B6: Y22P (designed binder)
chain: B1 chain with Y22P, W67E
B7: D40F (designed binder)
chain: B1 chain with D40F, W67E
B8: E5G (designed binder)
chain: B1 chain with E5G, W67E
B9: E77C (designed binder)
chain: B1 chain with W67E, E77C
B10: A28P (designed binder)
chain: B1 chain with A28P, W67E
B11: R97V (designed binder)
chain: B1 chain with W67E, R97V
B12: A83S (designed binder)
chain: B1 chain with W67E, A83S
B13: A106C (designed binder)
chain: B1 chain with W67E, A106C
B14: Y37G (designed binder)
chain: B1 chain with Y37G, W67E
B15: A28H (designed binder)
chain: B1 chain with A28H, W67E
B16: L39F (designed binder)
chain: B1 chain with L39F, W67E
B17: I49Q (designed binder)
chain: B1 chain with I49Q, W67E
B18: E73P (designed binder)
chain: B1 chain with W67E, E73P
B19: S51A (designed binder)
chain: B1 chain with S51A, W67E
B20: A23K (designed binder)
chain: B1 chain with A23K, W67E
B21: E5H (designed binder)
chain: B1 chain with E5H, W67E
B22: R92M (designed binder)
chain: B1 chain with W67E, R92M
B23: R89D (designed binder)
chain: B1 chain with W67E, R89D
B24: I49Y (designed binder)
chain: B1 chain with I49Y, W67E
B25: A98F (designed binder)
chain: B1 chain with W67E, A98F
B26: A76R (designed binder)
chain: B1 chain with W67E, A76R
B27: R8D (designed binder)
chain: B1 chain with R8D, W67E
B28: K62M (designed binder)
chain: B1 chain with K62M, W67E
B29: D65W (designed binder)
chain: B1 chain with D65W, W67E
B30: E44G (designed binder)
chain: B1 chain with E44G, W67E
B31: K30Q (designed binder)
chain: B1 chain with K30Q, W67E
B32: L74G (designed binder)
chain: B1 chain with W67E, L74G
B33: Q34D (designed binder)
chain: B1 chain with Q34D, W67E
B34: L3I (designed binder)
chain: B1 chain with L3I, W67E
B35: L52W (designed binder)
chain: B1 chain with L52W, W67E
B36: L96I (designed binder)
chain: B1 chain with W67E, L96I
B37: L41Q (designed binder)
chain: B1 chain with L41Q, W67E
B38: R92C (designed binder)
chain: B1 chain with W67E, R92C
B39: L74A (designed binder)
chain: B1 chain with W67E, L74A
B40: D56L (designed binder)
chain: B1 chain with D56L, W67E
B41: F20K (designed binder)
chain: B1 chain with F20K, W67E
B42: F31H (designed binder)
chain: B1 chain with F31H, W67E
B43: A102W (designed binder)
chain: B1 chain with W67E, A102W
B44: K30C (designed binder)
chain: B1 chain with K30C, W67E
B45: E18Y (designed binder)
chain: B1 chain with E18Y, W67E
B46: R21N (designed binder)
chain: B1 chain with R21N, W67E
B47: H78G (designed binder)
chain: B1 chain with W67E, H78G
B48: R61M (designed binder)
chain: B1 chain with R61M, W67E
B49: G54V (designed binder)
chain: B1 chain with G54V, W67E
B50: F63A (designed binder)
chain: B1 chain with F63A, W67E
B51: I45F (designed binder)
chain: B1 chain with I45F, W67E
B52: E43A (designed binder)
chain: B1 chain with E43A, W67E
B53: Q48T (designed binder)
chain: B1 chain with Q48T, W67E
B54: A105V (designed binder)
chain: B1 chain with W67E, A105V
B55: P79V (designed binder)
chain: B1 chain with W67E, P79V

Target: T1, TNFR1
Test: yeast display SC50

| Binder | apparent Kd (screen) [pM] |
| --- | --- |
| B1 | 10400 |
| B2 | 790 |
| B3 | 20200 |
| B4 | 718 |
| B5 | 956 |
| B6 | 4390 |
| B7 | 18300 |
| B8 | 653 |
| B9 | 1160 |
| B10 | 2050 |
| B11 | 490 |
| B12 | 539 |
| B13 | 1160 |
| B14 | 5310 |
| B15 | 7780 |
| B16 | 189 |
| B17 | 368 |
| B18 | 5310 |
| B19 | 869 |
| B20 | 539 |
| B21 | 490 |
| B22 | 593 |
| B23 | 2480 |
| B24 | 2480 |
| B25 | 593 |
| B26 | 490 |
| B27 | 593 |
| B28 | 718 |

| Binder | apparent Kd (screen) [pM] |
| --- | --- |
| B29 | 790 |
| B30 | 20200 |
| B31 | 718 |
| B32 | 6430 |
| B33 | 5310 |
| B34 | 539 |
| B35 | 405 |
| B36 | 869 |
| B37 | 2480 |
| B38 | 718 |
| B39 | 1690 |
| B40 | 2730 |
| B41 | 22200 |
| B42 | 1400 |
| B43 | 539 |
| B44 | 539 |
| B45 | 539 |
| B46 | 653 |
| B47 | 593 |
| B48 | 593 |
| B49 | 653 |
| B50 | 1270 |
| B51 | 3630 |
| B52 | 790 |
| B53 | 1540 |
| B54 | 718 |
| B55 | 790 |

From article PMC12416549 (2024)
